In assay [1] the target is AMA-1 on P. falciparum 3D7 strain parasites (Plasmodium falciparum).
The target is the same in assay [2]. This is another data set of the same source.
For assay [3], the target named is T1, AMA-1 on P. falciparum 3D7 strain parasites (Plasmodium falciparum).
T1 chain: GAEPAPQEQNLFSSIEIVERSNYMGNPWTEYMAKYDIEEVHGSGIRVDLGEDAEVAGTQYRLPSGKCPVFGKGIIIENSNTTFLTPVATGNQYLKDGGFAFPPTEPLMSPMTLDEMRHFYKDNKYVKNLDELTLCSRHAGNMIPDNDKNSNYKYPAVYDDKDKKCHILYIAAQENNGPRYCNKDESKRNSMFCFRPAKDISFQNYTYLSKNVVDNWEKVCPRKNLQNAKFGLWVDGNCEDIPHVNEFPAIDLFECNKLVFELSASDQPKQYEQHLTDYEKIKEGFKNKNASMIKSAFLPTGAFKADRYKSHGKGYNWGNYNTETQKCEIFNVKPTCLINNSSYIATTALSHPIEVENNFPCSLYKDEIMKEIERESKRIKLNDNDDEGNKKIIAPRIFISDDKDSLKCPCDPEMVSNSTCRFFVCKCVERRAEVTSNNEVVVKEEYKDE
Kind of assay: cell-based or functional assay.

Assay [4] addresses T1, AMA-1 on P. falciparum 3D7 strain …. The experiment in a line: cell-based or functional assay.
The target in the next assay is 7 AMA-1 allelic proteins. Kind of assay: dot blot against 7 AMA-1 allelic proteins.

Like-named read-outs stand apart in the source and are kept apart here.

rat mAb 4G2dc1 (antibody): the GIA at 1 mg/ml against the 3D7 target strain: Inhibition in assay [1] is 22%. The IC30 concentration in GIA against 3D7 target parasites in assay [2] stood at 1800 µg/mL.

B1: Monoclonal 1B10 (antibody, V domains shown)
VH: EVQLQESGPGLVQPSQSLSITCTVSGFSLNMYGVHWVRQSPGKGLEWLGVIWSGGTTDYNAAFISRLSINRDNSKSQVFFKMNSLQTDDTAIYYCVRNNGYYVDAMDYWGQGTSVAVSS
VL: DVVMTQTPLSLPVSLGDQASISCRSSQSLVHSNGNTYLHWYLQRPGQSPKLLIYKVSNRFSGVPDRFSGSGSGTDFTLKISRVEAEDLGVYFCSQSTLGPTFGGGTKLEMQR
Turning to B1, the “IC30 concentration in GIA against 3D7 target parasites” value (“IC30 concentration in GIA” below) in assay [3] came out at 150 µg/mL. For the same molecule, the “GIA at 1 mg/ml against the 3D7 target strain: Inhibition” value (from here on “GIA at 1 mg/ml … Inhibition”) in assay [4] is 65%. Moreover, the Strain reactivity (of 7 AMA-1 allelic proteins) with 7 AMA-1 allelic proteins is 5.

B2: Monoclonal 4E11 (antibody, V domains shown)
VH: EVQLQESGPGLVRPSQSLSITCTVSGFSLPLYGVHWVRQSPGKGLEWLGVIWSGGSTDYNAAFVSRLSISKDNSKSQVFFEMNSLQADDTATYYCARNNGYYVDAMDYWGQGTSVTVSS
VL: DVVMTQTPLSLPVSLGDQASISCRSSQSLVHSNGNTYLHWYLQKPGQSPKLLIFKVSNRFSGVPDRFSGSGSGTDFTLQISRVEAEDLGFYFCSQSTHVPTFGGGTKLEIKR
With B2, in assay [3], the “IC30 concentration in GIA” value came out at 220 µg/mL. The “GIA at 1 mg/ml … Inhibition” value in assay [4] was 62%. The molecule further returned a Strain reactivity (of 7 AMA-1 allelic proteins) in the assay with 7 AMA-1 allelic proteins of 5.

B3: Monoclonal 4E8 (antibody, V domains shown)
VH: EVQLQESGPGLVQPSQSLSITCTVSDFSLIMYGVHWVRQSPGKGLEWLGVIWSGGSTDYNAAFISRLSISKDNSKSQVFFKMNSLQADDTAIYYCARNNGYYVDAMDYWGQGTSVTVSS
VL: DVVMTQTPLSLPVSLGDQASISCRSSQSLVHNNGNTYLHWYLQKPGQSPKLLIYKVSNRFFGVPDRFSGSGSGTDFTLKISRVEAEDLGVYFCSQSTHVPTFGGGTKLEIKR
For the molecule B3, the “IC30 concentration in GIA” value in assay [3] was found to be 150 µg/mL. In assay [4], the “GIA at 1 mg/ml … Inhibition” value was determined as 67%. The same molecule showed a Strain reactivity (of 7 AMA-1 allelic proteins) with 7 AMA-1 allelic proteins of 6.

B4: Monoclonal 1E10 (antibody, V domains shown)
VH: EVQLQESGAELAKPGASVKLSCKASGYTFTNYLMHWIKQRPGQGLEWIGYINHGSGYTNYNQKFIDRATLTADKSSSTAYMQLRSLTYEDSAVYYCVHGYFDVWGTGTTVTVSS
VL: QIVLTQSPTIMSASPGEKVTMTCSASSSVTYMHWYQQKPGTSPKRWIYDTSKLASGVPARFSGSGSGTSYSLTISSMEAEDAATYYCHQRSSYPTFGGGTKLEIKR
For B4, the “IC30 concentration in GIA” value in assay [3] worked out at 1900 µg/mL. The “GIA at 1 mg/ml … Inhibition” value in assay [4] was found to be 20%. Also, in the assay with 7 AMA-1 allelic proteins, the Strain reactivity (of 7 AMA-1 allelic proteins) was found to be 7.

The record behind these values is patent publication US10357554B2, “AMA-1 epitopes, antibodies, compositions, and methods of making and using the same” (THE UNITED STATES OF AMERICA, AS REPRESENTED BY THE …, dated 2019).
